Laboratory results reported in article doi:10.1101/2020.01.12.903617, “The peptide sensor motif stabilizes the outward-facing conformation of TmrAB” (bioRxiv, 2020).
No end group written: not given here. fluorescein = fluorescein label attached to the Cys side chain

Legend:
[1] = molecular target: T1, WT TmrAB, heterodimeric peptide exporter from Thermus thermophilus (Thermus thermophilus, UniProt Q72J05 1-600; Q72J04 1-578); experiment: fluorescence polarisation; 1.7 uM TmrAB with 50 nM RRY(C^Fluorescein)KSTEL in SEC buffer (20 mM HEPES, 150 mM NaCl, pH 7, 0.05% ß-DDM), 15 minutes on ice, in the absence or presence of 5 mM ATP and 10 mM MgCl2; read at 25°C (the results say 4°C); signal normalized to WT without ATP; details: both partners purified
T1 construct: TmrA, Thermus thermophilus, the chain of TmrAB with the canonical Walker B motif; TmrB, Thermus thermophilus, the chain of TmrAB with the non-canonical Walker B motif; TmrAB template in pet22b; also called wild-type TmrAB
T1 sequence 1: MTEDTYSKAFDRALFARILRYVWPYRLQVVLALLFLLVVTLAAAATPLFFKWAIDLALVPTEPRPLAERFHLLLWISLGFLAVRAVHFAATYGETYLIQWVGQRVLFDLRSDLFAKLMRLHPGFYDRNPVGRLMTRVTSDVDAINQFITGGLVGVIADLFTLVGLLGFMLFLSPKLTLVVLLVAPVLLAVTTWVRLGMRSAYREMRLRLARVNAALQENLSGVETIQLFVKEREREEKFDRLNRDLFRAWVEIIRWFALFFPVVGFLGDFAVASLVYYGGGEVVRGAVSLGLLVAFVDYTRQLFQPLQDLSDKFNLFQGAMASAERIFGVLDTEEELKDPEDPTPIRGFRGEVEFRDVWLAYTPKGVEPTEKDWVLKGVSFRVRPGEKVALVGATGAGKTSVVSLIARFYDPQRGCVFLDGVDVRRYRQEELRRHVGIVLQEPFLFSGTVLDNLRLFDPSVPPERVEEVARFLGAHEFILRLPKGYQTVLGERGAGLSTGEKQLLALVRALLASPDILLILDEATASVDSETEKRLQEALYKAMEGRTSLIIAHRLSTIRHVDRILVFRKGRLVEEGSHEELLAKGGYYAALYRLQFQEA
T1 sequence 2: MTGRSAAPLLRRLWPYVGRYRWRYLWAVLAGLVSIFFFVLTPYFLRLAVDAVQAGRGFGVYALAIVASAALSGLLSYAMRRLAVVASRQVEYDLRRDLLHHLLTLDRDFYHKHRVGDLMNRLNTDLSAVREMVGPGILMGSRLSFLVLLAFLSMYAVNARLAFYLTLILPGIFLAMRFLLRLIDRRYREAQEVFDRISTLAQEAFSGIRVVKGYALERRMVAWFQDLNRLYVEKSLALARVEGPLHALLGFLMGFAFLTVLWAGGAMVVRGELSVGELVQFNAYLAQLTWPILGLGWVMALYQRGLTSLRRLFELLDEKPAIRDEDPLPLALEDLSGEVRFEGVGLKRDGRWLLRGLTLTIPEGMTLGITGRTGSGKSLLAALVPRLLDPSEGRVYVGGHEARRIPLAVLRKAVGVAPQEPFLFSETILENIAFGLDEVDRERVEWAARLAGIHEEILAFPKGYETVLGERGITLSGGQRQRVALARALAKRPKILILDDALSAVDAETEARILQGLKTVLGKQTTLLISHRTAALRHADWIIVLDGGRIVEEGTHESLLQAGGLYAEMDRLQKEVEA

[2] = molecular target: T2, TmrAB D140A^TmrA (Thermus thermophilus, UniProt Q72J05 1-600; Q72J04 1-578, D140A); experiment: as above; details: both partners purified
T2 construct: TmrA, Thermus thermophilus, the chain of TmrAB with the canonical Walker B motif; TmrB, Thermus thermophilus, the chain of TmrAB with the non-canonical Walker B motif
T2 sequence 1: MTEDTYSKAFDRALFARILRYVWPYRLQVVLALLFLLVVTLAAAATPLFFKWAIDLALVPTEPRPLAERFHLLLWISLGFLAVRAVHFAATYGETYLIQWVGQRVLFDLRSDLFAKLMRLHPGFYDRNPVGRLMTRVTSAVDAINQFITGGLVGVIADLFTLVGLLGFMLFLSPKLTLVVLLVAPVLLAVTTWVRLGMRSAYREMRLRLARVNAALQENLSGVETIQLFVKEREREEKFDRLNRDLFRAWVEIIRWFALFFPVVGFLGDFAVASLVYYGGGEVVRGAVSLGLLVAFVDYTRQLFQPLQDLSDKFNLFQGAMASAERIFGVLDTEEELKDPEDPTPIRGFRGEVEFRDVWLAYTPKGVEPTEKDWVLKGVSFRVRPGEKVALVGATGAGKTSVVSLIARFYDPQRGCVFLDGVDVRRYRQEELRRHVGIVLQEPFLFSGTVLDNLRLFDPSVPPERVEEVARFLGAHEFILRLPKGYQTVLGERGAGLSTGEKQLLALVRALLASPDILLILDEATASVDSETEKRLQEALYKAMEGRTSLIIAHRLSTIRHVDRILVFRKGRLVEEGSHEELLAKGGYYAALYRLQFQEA
T2 sequence 2: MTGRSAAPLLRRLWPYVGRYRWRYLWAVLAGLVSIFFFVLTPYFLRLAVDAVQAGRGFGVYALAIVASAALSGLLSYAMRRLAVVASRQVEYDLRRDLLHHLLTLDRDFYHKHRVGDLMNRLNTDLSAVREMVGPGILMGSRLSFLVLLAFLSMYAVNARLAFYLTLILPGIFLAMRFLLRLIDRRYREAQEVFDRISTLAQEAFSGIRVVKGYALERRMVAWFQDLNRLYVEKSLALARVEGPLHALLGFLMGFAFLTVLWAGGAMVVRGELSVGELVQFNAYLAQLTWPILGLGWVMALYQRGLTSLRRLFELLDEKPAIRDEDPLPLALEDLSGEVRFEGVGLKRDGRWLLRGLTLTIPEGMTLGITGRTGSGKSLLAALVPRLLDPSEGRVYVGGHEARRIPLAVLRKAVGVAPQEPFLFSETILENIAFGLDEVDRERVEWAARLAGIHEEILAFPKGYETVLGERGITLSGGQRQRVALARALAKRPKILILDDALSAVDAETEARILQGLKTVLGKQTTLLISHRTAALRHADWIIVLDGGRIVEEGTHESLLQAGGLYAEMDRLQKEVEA

B1: fluorescent transport substrate peptide RRY(C^Fluorescein)KSTEL (peptide)
peptide: RRYC(fluorescein)KSTEL
notes: fluorescein-labelled transport substrate peptide of TmrAB; also called fluorescently-labeled peptide substrate; peptide substrate; source: bought: Genscript
binding result [1]: binds
binding result [2]: binds
